The target of series [1] is T1, L1-EN D145A/Y226K (LINE-1 ORF2p endonuclease domain) (human, UniProt O00370 1-238, D145A;Y226K). As to the kind of experiment: X-ray crystallography; no Mg2+; 0.1 M sodium acetate pH 4.5, 0.2 M ammonium acetate, 15% PEG 4000; 2.8 A; Co-crystallization: protein 16-24 mg/ml in 300 mM NaCl, 15 mM HEPES pH 7.5, 2% glycerol, 1 mM TCEP, DNA:protein 1.2:1; crystallization pH 6.0 (dna17) or 4.5 (dna14); temperature not stated. The conditions noted are these: protein: recombinant; tags: N-terminal 6xHis-SUMO, cleaved with Ulp1; single-nucleotide T/A overhangs at the ends.

Series [2] deals with T1, L1-EN D145A/Y226K (LINE-1 ORF2p …). As to the kind of experiment: X-ray crystallography; no Mg2+; 0.1 M MES pH 6.0, 0.2 M NaCl, 30% Jeffamine ED-2003; 2.8 A; Co-crystallization: protein 16-24 mg/ml in 300 mM NaCl, 15 mM HEPES pH 7.5, 2% glycerol, 1 mM TCEP, DNA:protein 1.2:1; crystallization pH 6.0 (dna17) or 4.5 (dna14); temperature not stated. The conditions noted are these: protein: recombinant; tags: N-terminal 6xHis-SUMO, cleaved with Ulp1; single-nucleotide T/A overhangs at the ends.

T1 sequence (O00370 1-238 D145A/Y226K): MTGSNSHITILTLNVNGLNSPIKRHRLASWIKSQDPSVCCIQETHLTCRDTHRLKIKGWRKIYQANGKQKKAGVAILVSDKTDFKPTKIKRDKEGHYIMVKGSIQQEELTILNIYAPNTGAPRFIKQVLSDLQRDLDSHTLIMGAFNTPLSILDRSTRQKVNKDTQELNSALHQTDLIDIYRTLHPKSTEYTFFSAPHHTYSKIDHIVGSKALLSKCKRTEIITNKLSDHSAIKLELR

B1: dna14 (dsDNA)
DNA 1: GCTCCTTTTTAAGGA
DNA 2: CCTTAAAAAGGAGCT
With B1, in series [1], the binding result is “binds”.

B2: dna17 (dsDNA)
DNA 1: GCTCCTTTTTAAGGGCTA
DNA 2: AGCCCTTAAAAAGGAGCT
On to B2, for which the binding result in series [2] was “binds”.
